Key:
[1] = substrate: O=[N+]([O-])c1ccc(O[C@@H]2OC[C@@H](O[C@@H]3OC[C@@H](O)[C@H](O)[C@H]3O)[C@H](O)[C@H]2O)cc1; test: purified protein; format: biochemical, synthetic construct; conditions: 37 °C, 50 mM Tris pH 6.5, 150 mM NaCl, MBP fusion
[2] = substrate: O=[N+]([O-])c1ccc(O[C@@H]2OC[C@@H](O[C@@H]3OC[C@@H](O)[C@H](O)[C@H]3O)[C@H](O)[C@H]2O)cc1; test: purified protein; format: biochemical, Geobacillus stearothermophilus; conditions: 37 °C, 50 mM Tris pH 6.5, 150 mM NaCl, MBP fusion

B1: xyl3.1 (synthetic construct) (protein)
chain: TIGSEFKPHISALNAPSLAQRYKDYFYIGAAVEPYQTTKEKDAKMLQRHFNMIVAENAMKPAALEPTEGNFQWADADRIVQFAKENGMELRFHTLVWHNQTPDWFFLDREGKPMVEETDPQKREENRELLLQRLENHIRAVVLRYKDDIKNWDVVNEVVEPNDPGGMRNSPWYQITGTEYIEVAFRAAREAGGEDIKLYMNDYNTEQEPKREYIYRLIKKLLEKGVPIDGVGHQAHVTIDRPPVDEIKKTIQRFADLGLDNQITELDVSLYGWPPRPAYPTYDAIPEERFQAQADRYRQLFELFEELKDHISAVTFWGIADNHTWLDDRAREYNDGVGKDAPFVFDPNYRVKPAYWAIINHK
notes: computational design (105 mutations to nearest natural protein), N-terminal His6-MBP fusion kept in assay
Km [1]: 1820 ± 600 µM
kcat [1]: 17 ± 5 s⁻¹

B2: Xylanase from Geobacillus stearothermophilus (PDB ID: 4PUD) (Geobacillus stearothermophilus) (protein)
chain: KPHISALNAPQLDQRYKNEFTIGAAVEPYQLQNEKDVQMLKRHFNSIVAENVMKPISIQPEEGKFNFEQADRIVKFAKANGMDIRFHTLVWHSQVPQWFFLDKEGKPMVNETDPVKREQNKQLLLKRLETHIKTIVERYKDDIKYWDVVNEVVGDDGKLRNSPWYQIAGIDYIKVAFQAARKYGGDNIKLYMNDYNTEVEPKRTALYNLVKQLKEEGVPIDGIGHQSHIQIGWPSEAEIEKTINMFAALGLDNQITELDVSMYGWPPRAYPTYDAIPKQKFLDQAARYDRLFKLYEKLSDKISNVTFWGIADNHTWLDSRADVYYDANGNVVVDPNAPYAKVEKGKGKDAPFVFGPDYKVKPAYWAIIDHK
notes: synthetic codon-optimised gene, N-terminal His6-MBP fusion kept in assay, E. coli BL21 DE3; monomer; 4PUD names the template structure
Km [2]: 160 ± 20 µM
kcat [2]: 6.47 ± 0.04 s⁻¹

Reference: article PMC6050298, “Highly active enzymes by automated combinatorial backbone assembly and sequence design” (Nature Communications, 2018)
